Data published in patent US7148021B2, “Human zona pellucida proteins and methods of their use in diagnosing male infertility” (Eastern Virginia Meical School, priority 2001, dated 2006).

Tests used:
sperm [1] = experiment: Percentage of acrosome-reacted sperm as determined by FITC-PSA; type: cell-based, human; details: NT 30 ng/ml, calcium ionophore 5 μM, rhZP3 30 ng/ml, solubilized zona 0.5 ZP/μl, Mean (±SEM); for % Acrosome reacted-sperm: n = 29 ejaculates
Source text: The acrosome reaction was studied in response to purified rhZP3, natural solubilized human ZP and the calcium ionophore.

sperm [2] = experiment: Weighted acrosome scoring of fluorescence-stained sperm morphology types; type: cell-based, human; details: for % of Type I (intact acrosome): column drawing 1; for % of Type II (damaged acrosome): column drawing 2; for % of Type III (equatorial segment): column drawing 3; for % of Type IV (no fluorescence in head): column drawing 4
Source text: A representative example of this method is as follows. […] (See Arts et al, 1994 for further details useful for this example).
In a second step, each type is given a score. In this example, Type I has fluorescence in the acrosomal region, indicating intact acrosome; Type II has fluorescence in a clearly damaged acrosome; Type III has fluorescence in the equatorial segment; and Type IV has no detectable fluorescence in the head. Each type, in the representative example is given a score as follow. Type I has 0 points, Type II has 1 point, Type III has 1.5 points and Type IV has 2 points. Of course different numbers of types may be scored and different weighting systems may be used, depending on knowledge of the system used and the conditions and reagents used for scoring each type. In this example, the sperm are examined under a fluorescence microscope and the percentage of each category is recorded. To determine the total AR score, the percentage of each category type is multiplied by the appropriate point and added together as shown in the equation below and in […]

[3] = system: sperm-zona pellucida binding; details: hemizona assay; cited from earlier work
[4] = system: sperm-zona pellucida binding; experiment: Hemizona assay, inhibition of sperm-zona pellucida binding; type: cell-based, human
Source text: Isolation and purification procedures A wide variety of isolation and purification procedures for ZP3, ZP2, ZP1 as whole proteins, glycosylated fragments, complexes, conjugates and as fusion proteins may be used in embodiments of the invention. […] Furthermore, data were obtained that establish the ability of rhZP3 to induce the sperm acrosomal reaction. […] Each of the techniques most preferably uses a human glycosylated ZP3 and/or ZP2 and/or ZP1.
This procedure was used to evaluate recombinant human ZP3 as described above.
The hemizona assay is employed as a parallel assay to evaluate the binding ability of GFP-rhZP3 coated agarose beads. An aliquot of semen is processed as described above. Both sperm and artificial zona are processed as described above. For each hemizona pair, the HZI was calculated as follows: (number of test sperm bound to the hemizona/number of fertile sperm bound to hemizona)×100. […]
A hemizona assay is to be carried out as a parallel assay to evaluate the binding ability of GFP-rhZP3 coated agarose beads. […] After capacitation, sperm sample are ready for use in a HZA. […] The number of sperm tightly bound to the outer surface are counted. For each hemizona pair, the HZI is calculated as follows: (number of test sperm bound to the hemizona/number of fertile sperm bound to hemizona)×100 (Burkman, et al.,1988). […]

human sperm [5] = details: 30 ng/mL; cited from earlier work
human sperm [6] = experiment: Acrosome reaction by rhZP3 after sperm capacitation time course; type: cell-based; details: 30 ng/mL, 4 hours capacitation
Experimental: The time course study of sperm capacitation in combination with rhZP3 was evaluated. After different periods of capacitation, sperm were treated with rhZP3 (30 ng/ml) for thirty minutes to trigger the acrosome reaction. […] In many embodiments with rhZP3 an approximate 4 hour capacitation time is preferred because at this time frame the sperm are 99% alive as compared to 86%, 82% and 66% of live sperm for 8, 12 and 24 hours of capacitation time respectively. Experiments were performed after 4 hours of capacitation. The ratio of acrosome-reacted spermatozoa increased by 1.5 fold, after incubation with 30 ng/mL rhZP3, as compared to controlled conditions. This increased activity is much stronger than the increased activity produced after incubation with rhZP3 made by CHO cells. The CHO cell product induced a similar percentage of acrosome reaction in human sperm following 24-hour sperm capacitation at a dose of 15–20 ng/μl (van Duin et al, 1994).

Molecule | % Sperm viability (sperm [1]) | % Acrosome reacted-sperm (sperm [1]) [%] | AR percentage (sperm [2]) [%] | Score Type I (0 × %) (sperm [2]) | Score Type II (1 × %) (sperm [2]) | Score Type III (1.5 × %) (sperm [2]) | Score Type IV (2 × %) (sperm [2]) | Total AR score (sperm [2]) | % of Type I (intact acrosome) (sperm [2]) [%] | % of Type II (damaged acrosome) (sperm [2]) [%] | % of Type III (equatorial segment) (sperm [2]) [%] | % of Type IV (no fluorescence in head) (sperm [2]) [%] | minimally effective dose for sperm-zona pellucida binding inhibition [3] [ng/mL] | hemizona index, in words [4] | live acrosome-reacted sperm (human sperm [5]) | increase of ratio of acrosome-reacted spermatozoa compared to control conditions (human sperm [6]) [fold]
CNc1ccc2oc(C[C@H]3O[C@@]4(CC[C@H]3C)O[C@H]([C@H](C)C(=O)c3ccc[nH]3)[C@H](C)C[C@H]4C)nc2c1C(=O)O [Calcium ionophore, reference compound] | 96.5 (2.0) % | 22.5 | 32 | 0 | 7 | 27 | 30 | 64 | 60 | 7 | 18 | 15 | – | – | – | –
rhZP3: recombinant human zona pellucida protein 3 made by human ovarian cell line PA-1, correctly glycosylated (protein, listed as Homo sapiens, recombinant, glycosylated, made in PA-1 cells, recombinant human zona pellucida protein 3 made by human ovarian cell line PA-1, correctly glycosylated) MELSYRLFICLLLWGSTELCYPQPLWLLQGGASHPETSVQPVLVECQEATLMVMVSKDLFGTGKLIRAADLTLGPEACEPLVSMDTEDVVRFEVGLHECGNSMQVTDDALVYSTFLLHDPRPVGNLSIVRTNRAEIPIECRYPRQGNVSSQAILPTWLPFRTTVFSEEKLTFSLRLMEENWNAEKRSPTFHLGDAAHLQAEIHTGSHVPLRLFVDHCVATPTPDQNASPYHTIVDFHGCLVDGLTDASSAFKVPRPGPDTLQFTVDVFHFANDSRNMIYITCHLKVTLAEQDPDELNKACSFSKPSNSWFPVEGPADICQCCNKGDCGTPSHSRRQPHVMSQWSRSASRNRRHVTEEADVTVGPLIFLDRRGDHEVEQWALPSDTSVVLLGVGLAVVVSLTLTAVILVLTRRCRTASHPVSASE | – | 18.3 | 29 | 0 | 12 | 33 | 14 | 59 | 59 | 12 | 22 | 7 | 30 | dramatically decreasing the hemizona index | 19%±4.1% | 1.5
